First the molecules themselves.
B1: C978 (antibody, V domains shown)
VH: QVQLVQSGAEVKKPGSSVKVSCKASGATFSNYIISWVRQAPGQGLEWMGRTIPLLDIANYAQKFQGRVTITADKSTRIVYMHLGSLTSEDTAVYYCATGKGYSSSSAAYYFDHWGQGTLVTVSS
VL: QSVLTQPPSVSGAPGQRVTISCTGTNSNIGAGYDIHWYQQLPGTAPKLLIYGSNNRPSGVPDRFSGSKSGTSASLAITGLQAEDEADYYCQSYDSSLSGSEVFGGGTKLTVL
notes: IgG; V domains only
B2: C992 (antibody, V domains shown)
VH: QVQLQESGPGLVKPSQTLSLTCTVSGGSISNGGYFWTWIRQHPVKGLEWIGYIYYSGSPHYNPSLKSRLSISLDTFKNQFSLNLSSVTAADTAVYYCARGDTFGRGYYFDFWGQGTLVTVSS
VL: SYELTQPPSVSVAPGQTARITCGGNNIGTNSMHWYQQKPGQAPVLVVFDDSDRPSGIPERFSGSNSGNTATLTISRVEAGDEADYHCQVWDRSSDRPWVFGGGTKLTVL
notes: IgG; V domains only
B3: C979 (antibody, V domains shown)
VH: QVQLVESGGGVVQPGRSLRLSCVASGFTFSNYGMHWVRQAPGKGLEWVAVILYDGSDKYYLDSVKGRFTISRDNSKNTLFLQLNSLRAEDTAVYYCAKEGNGYGYQYAGMDVWGQGTTVTVS
VL: QSALTQPASVSGSPGQSITISCTGTNSDVGGYDYVSWYQQHPGKAPKLIIFEVINRPSGVSNRFSGSKSGNTASLTISGLRAEDEADYYCCSYTTSTTRVFGGGTKLTVL
notes: IgG; V domains only
B4: C994 (antibody, V domains shown)
VH: QVQLQESGPGLVKPSGTLSLTCAVSGVSISNTNWWNWVRQPPGKGLEWIGEIYHTGSARYNPSLRSRVTISVDKSKNQFSLRLNSATAADTAIYYCARAQTPEFGELLYWGQGALVTVSS
VL: DIQMTQSPSSLSASVGDRVTITCRASQSITDHLNWYQQKPGKAPKLLIYAASSLQTGVPSRFSGSGSETDFTLTISTLQPEDFATYYCQQSYGPPTYSFGQGTKLEIK
notes: IgG; V domains only
B5: C984 (antibody, V domains shown)
VH: QVQLVQSGTEVKKPGDSVQVSCKTSGYSFTGYYIHWVRQAPGQGLEWMGRINPNSGGTNYAQKFQGRVIMTRDTSITTAFMELTRLRYDDTAVYFCAREPIEGVIGGMIVNYYYMDVWGRGTTVTVSS
VL: QSALTQPASVSGSPGQSITISCTGTSSDVGGYYYVSWYQQHPGKAPKLMIYDVSSRPSGVSNRFSGSKSGNTASLTISGLQAEDEADYYCSSYTSSNTLVVFGGGTKLTVL
notes: IgG; V domains only
B6: C985 (antibody, V domains shown)
VH: QVQLVQSGAEVKKPGASVKVSCKASGYIFTGYYMHWVRQAPGQGLEWMGRINPNSGGSRYAEKFQGRVTMTRDTSIITAFMELRGLKSDDTAVYYCAREPIEAVPAGIIVNYYYMDVWGNGTTVTVSS
VL: B5 VL with Y33N, S54T, N62D, N71T, Y93F, S96A, N97F
notes: IgG; V domains only
B7: C972 (antibody, V domains shown)
VH: EVQLVESGGGLVQPGGSLRLSCAASEFIVSRNYMSWVRQAPGKGLEWVSLIYPGGSTYYPDSVKGRFTISRDNSKNTLYLQMNSLRGEDTAVYYCARDLGDSRLDYWGQGALVTVSS
VL: DIQLTQSPSFLSASVGDRVTITCRASQGISSYLAWYQQDPGKAPKLLIYAASTLQSGVPSRFSGSGSGTEFTLTISSLQPEDFATYYCQQLDSYPPGYSFGQGTKLEIK
notes: IgG; V domains only
B8: C982 (antibody, V domains shown)
VH: EVQLVESGGGLVQPGGSLRLSCAASGFTFSNYDMHWVRQPTGGGLEWVSAIGTAGDTYYLASVKGRFTISRENAKNSLSLQMNSLRAGDTAVYYCVRGDTLVQGVIKAYYYYFMDVWGQGITVTVSS
VL: DIQMTQSPSSLSASVGDRVTITCRASQNISRYLNWYQQKPGKAPRLLIYAASTLQSGVPSRFSASGSGTDFTLTITNLQPEDFAVYYCQQTYVMPPYTLAQGTKLEIK
notes: IgG; V domains only
B9: C963 (antibody, V domains shown)
VH: QVQLVQSGAEVKKPGSSVRVSCKASGGTFSSFTITWVRQAPGQGLEWMGRIIPNLNIPNYAQRFQGRITITAEKSTSTAYLELSSLRSEDTAVYYCARGVGYSGSGSNWYFDLWGRGTLVTVSS
VL: QSVLTQPPSVSGAPGQRVTISCTGSSSNIGAGYDVHWYQQLPGTAPKLLISGHINRPSGVPDRFSGSTSGTSASLAITGLQAEDEADYYCQSYDSSLSDSVFGGGTKLTV
notes: IgG; V domains only
B10: C971 (antibody, V domains shown)
VH: EVQLVESGGGLVKPGGSLRLSCAASGFTFNNAWMTWVRQAPGKGLEWVGRIKSKTDGGTTDYGTPAKGRFTISRDDSKNTLYLQMKSLRTEDTAVYYCTTVDVQGIWELLENDAFDIWGQGTMVTVSS
VL: EIVLTQSPGTLSLSPGERATLSCRATQAISSTYLAWYQQKPGQAPRLLIYGAFSRAPGIPDRFSGSGSETDFTLTISRLEPEDFAVYYCQQSDRSPFTFGPGTKVDIK
notes: IgG; V domains only
B11: C958 (antibody, V domains shown)
VH: EVQLVQSGAEVKKPGDSLKISCKGSGYSFISHWIAWVRQKPGKGLEWMGIIHPGDSDTRYSPSIQGQVTISADRFITTAYLQWSSLQASDTAMYYCARRGSSWEIDHWGQGTLVTVSS
VL: QSVLTQPPSASGTPGQRVTISCSGSSSNIGSYTVNWYHQVPGTAPKVLIYGNTQRPSGVPDRFSGSKSGTSASLAISGLQSEDEGDYYCAAWDDSLDGWMFGGGTTLTVL
notes: IgG; V domains only
B12: C983 (antibody, V domains shown)
VH: QVQLVESGGGVVRPGRSLRLSCAASGFTFSKYGMHWVRQAPGKGLECVASIAYDGSDDSYADSVKGRFIISRDNSKNTLYLQMNSLRAADTAVYYCAKVLGSYCSASSCHGQRPDYWGQGTLVTVSS
VL: DIQMTQSPSSLSAYVGDRVTITCQASQDISNHLNWYQQKPGKAPNLLIYDASNLETGVPSRFSGSGSGTDFSFTISSLQPEDIATYYCQQYDNVPPWTFGQGTKVEIK
notes: IgG; V domains only
B13: C965 (antibody, V domains shown)
VH: EVQLVESGGGLVKPGRSLRLSCSASGFTFGDYAMTWFRQAPGKGLQWVGFIRSKPFGGTTQYAASVKGRFTISRDDSNNVAYLQMNSLKTEDTGVYYCTRLRQVQGVPGYYFDQWGQGALVTVSS
VL: EIVMTQSPATLSVSPGERATLSCRASQSVSSNLAWYQQKPGQAPRLLIYGASIRATGIPARFSGSGSGTEFTLTISSLQSEDFVVYYCQEYDNWFAFGGGTKVEIK
notes: IgG; V domains only
B14: C964 (antibody, V domains shown)
VH: EVQLVESGGGLVQPGRSLRLSCAASGFTFDDYGMHWVRQAPGKGLEWVSGISWNSGSIAYAEFVKGRFTISRDNAKNSLYLQMNSLRTEDTALYYCAKAVPTSCYVFCALDIWGQGTMVTVSS
VL: DIQMTQSPSSLSASVGDRVTITCRASQGISNYLAWYQQSPGKVPKLLIYAASTLQSGVPSRFSGSGSGTDFTLTISSLQPEDVATYYCQKYNSGPALTFGGGTKVEIK
notes: IgG; V domains only
B15: C977 (antibody, V domains shown)
VH: EVQLVESGGGLVQPGGSLRLSCAASGFTFSNYDMHWVRQVTGKGLEWVSLIGTAADAYYADSVKGRFTISRENAKNSLYLQINSLRAGDTAVYFCARGDSSGLYTFFDYWGQGTLVTVSS
VL: DIQMTQSPSSLSASVGDRVTITCRASQSVTRYLNWYQLKPGKAPKLLIYAASSLQSGVPSRFSGSGSGTDFTLTISSLQPEDFATYYCQQSYSTLGLTFGGGTKVEI
notes: IgG; V domains only
B16: C966 (antibody, V domains shown)
VH: EVQLVESGGGLIQPGGSLRLSCAASGFTFSSYDMHWVRQVTGKGLEWVSAIGTAGDRYYLDSVKGRFTISRENAKNSLHLQMNNLRVGDTAVYYCARASGVLTTHFDSWGRGTLVTVSS
VL: DIQMTQSPSSLSASVGDRVTITCRASQSIGRHLSWHQQKLGKAPKLLIYSASSLQSGVPSRFSGSGSGTDFTLTISSLQPEDFATYYCQQSYETPPWTFGQGTKVEIK
notes: IgG; V domains only
B17: C976 (antibody, V domains shown)
VH: EVQLVESGGALIQPGGSLRLSCAASGFTVSSNDMTWVRQAPGKGLEWVSVIYTGGGTYHADSAKGRFIISRHNSKNTLSLQMNDLRAEDTAVYYCARLTMTTYYFDSWGQGTLVTVSS
VL: SYELTQPPSVSLAPGQTARITCGGNGIGSKSVHWYQQKPGRAPVLVVYDDSVRPSGTPARFSGANSGNTATLTISRVEAGDEADYYCQVWDSFRDHQDWVFGGGTKLTVL
notes: IgG; V domains only
B18: C990 (antibody, V domains shown)
VH: EVQLVESGGGLVRPGGSLRLSCAASGFTVGSNFMSWVRQAPGKGLEWVSLIYSGGGTHYAESVKGRFTISRDKSKNTLYLQMNSLRAEDTAVYYCANQGYYYYMDVWGKGTTVTVS
VL: QSALTQPASVSGSPGQSITISCTGTSSDVGAYNYVSWHQHHPGKAPKLIIYDVSNRPSGVSNRFSGSKSGNTASLTISGLQAEDEADYYCTSYTNTTTPWVFGGGTKLTVL
notes: IgG; V domains only
B19: C993 (antibody, V domains shown)
VH: EVQLLESGGGLVQPGGSLRLSCAASGFPFSIYAMSWVRQAPGKGLEWVSGMRGTTGTTYYADSVKGRFAISRDNSKNMLHLQMNSLRAEDTAVYYCAKSDHGDYVIGAFDIWGQGTMVTVSS
VL: QSALTQPPSASGSPGQSVTISCTGTSGDVGGYNYVSWYQQHPGKAPKLMIYEVSKRPSGVPDRFSGSKSGNTASLTVSGLQAEDEADYYCNSYAGSNNWVFGGGTKLTVL
notes: IgG; V domains only
B20: C996 (antibody, V domains shown)
VH: EVQLVESGGGLVQPGGSLRLSCVASGFTSTNYDMHWVRQAPGRGLQWVSSIGTAGDTYYPGSVRGRFTISRENAKNSLDLQMNSLRVGDTAVYYCARGQRGYYDRSGYYWGWRAFDIWGQGTMVTVSS
VL: SYELTQPPSVSVAPGQTARITCGGNNIGNKSVYWYQQKPGQAPVLVVYDDSGRPSGIPERFSGSNSANTATLTISRVEAGDEADYYCQVWDNNSDQFGGGTKLTVL
notes: IgG; V domains only
B21: C981 (antibody, V domains shown)
VH: EVQLVESGGGLVQPGGSLRLSCAASGFTFSNYDMHWVRQVTGNGLEWVAAIGTSGDTYYPDSVKGRFTISRENVKNSLFLQMNSLRAGDTAVYYCARGGSSSWLWYFDLWGRGTLV
VL: DIQMTQSPSSLSASVGDRVTITCRASQSISSHLNWYQQKPGKVPKLLIYAASTLQSGVPSRFSGSGSGTDFTLTISSLQPEDFATYYCQQSYSMPPVTFGQGTRLEIK
notes: IgG; V domains only

For orientation: EC50 means the concentration giving half of the maximal effect. A lower EC50 goes with higher potency in that assay.

Substitutions are numbered along the chain they refer to.

This experiment concerns the target T1, SARS-COV-2 RBD (SARS-COV-2, UniProt P0DTC2 319-539).
T1 construct: also called WT RBD
Put plainly: ELISA, RBD coated. (An ELISA detects its analyte on a solid surface through an enzyme-linked reagent.)
The molecule B1 yielded an EC50 of 2.09 ng/mL. As for B2, the figure is 3.24 ng/mL; as for B3, 2.54 ng/mL; as for B4, 2.09 ng/mL. Consider B5, for which the response was half-maximal at 2.76 ng/mL (EC50). As for B6, the figure is 3.67 ng/mL; as for B7, 2.18 ng/mL. Consider B8, for which a half-maximal effect (EC50) was put at 2.56 ng/mL. B9 registered a concentration giving a half-maximal response (EC50) of 2.96 ng/mL. As for B10, the figure is 2.21 ng/mL. For the molecule B11, it took 4.02 ng/mL to reach a half-maximal effect (EC50). B12: the EC50 stood at 2.11 ng/mL. The molecule B13 gave an EC50 of 1.69 ng/mL. B14 had an EC50 of 2.79 ng/mL. Regarding B15, the 50% effective concentration (EC50) came out at 2.13 ng/mL. The EC50 values of the last two molecules are within 1.5-fold of each other. Molecule B16 yielded an EC50 of 1.97 ng/mL. The value for B17 was 2.52 ng/mL; that for B18 was 1.92 ng/mL; that for B19 was 2.29 ng/mL. As for B20, the figure is 3.07 ng/mL; as for B21, 2.12 ng/mL.

Values taken from patent publication US20240218057A1 (ROCKEFELLER UNIVERSITY, published 2024).
